From PMC2711183 (The EMBO journal, 2009)
Read-outs that look alike come from different tables or passages of the source.

T1: MccB K10A (E. coli) (UniProt Q47506)
T1 sequence: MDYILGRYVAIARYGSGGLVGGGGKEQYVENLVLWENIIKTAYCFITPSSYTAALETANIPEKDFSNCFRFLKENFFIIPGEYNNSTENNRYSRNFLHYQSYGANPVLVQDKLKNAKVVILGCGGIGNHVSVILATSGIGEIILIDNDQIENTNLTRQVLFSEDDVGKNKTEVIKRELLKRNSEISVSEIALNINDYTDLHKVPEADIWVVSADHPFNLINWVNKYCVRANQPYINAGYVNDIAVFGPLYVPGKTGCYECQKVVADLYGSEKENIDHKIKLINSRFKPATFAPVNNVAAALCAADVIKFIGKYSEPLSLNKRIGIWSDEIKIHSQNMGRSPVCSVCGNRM

B1: MccB (N-terminal His6-tag removed) (enzyme, E. coli, UniProt Q47506 1-350, looked up)
chain: MDYILGRYVKIARYGSGGLVGGGGKEQYVENLVLWENIIKTAYCFITPSSYTAALETANIPEKDFSNCFRFLKENFFIIPGEYNNSTENNRYSRNFLHYQSYGANPVLVQDKLKNAKVVILGCGGIGNHVSVILATSGIGEIILIDNDQIENTNLTRQVLFSEDDVGKNKTEVIKRELLKRNSEISVSEIALNINDYTDLHKVPEADIWVVSADHPFNLINWVNKYCVRANQPYINAGYVNDIAVFGPLYVPGKTGCYECQKVVADLYGSEKENIDHKIKLINSRFKPATFAPVNNVAAALCAADVIKFIGKYSEPLSLNKRIGIWSDEIKIHSQNMGRSPVCSVCGNRM

Tests used:
[1] = tested on: Nc1ncnc2c1ncn2[C@@H]1O[C@H](COP(=O)(O)OP(=O)(O)OP(=O)(O)O)[C@@H](O)[C@H]1O; experiment: purified protein; type: biochemical, Escherichia coli; conditions: 75 mM Tris-HCl pH 8.0, 5 mM MgCl2, 2.5 mM TCEP, co-substrate MccA
[2] = target: MccB ΔNTE (E. coli); experiment: AUC
[3] = target: T1, MccB K10A (E. coli)
[4] = target: B1; experiment: crystal structure
[5] = target: the molecule itself; experiment: crystal structure
[6] = target: the molecule itself; experiment: crystal structure; remark: listed apart in the source

Molecule | Km [1] | kcat [1] | kcat/Km [1] | other results
MccB (Escherichia coli; C123L) | 220 ± 80 µM | 0.000306 ± 8.33e-05 s⁻¹ | 2.22 M⁻¹ s⁻¹ | –
MccB (Escherichia coli; K10A) | 120 ± 20 µM | 0.00103 ± 0.000139 s⁻¹ | 8.33 M⁻¹ s⁻¹ | –
MccB (Escherichia coli; N241A) | 400 ± 120 µM | 0.000472 ± 0.000139 s⁻¹ | 1.11 M⁻¹ s⁻¹ | –
MccB (Escherichia coli; R94A) | 380 ± 130 µM | 0.00125 ± 0.000917 s⁻¹ | 2.22 M⁻¹ s⁻¹ | –
MccB (Escherichia coli; Y239A) | 380 ± 190 µM | 5.56e-06 ± 2.22e-06 s⁻¹ | 0.0139 M⁻¹ s⁻¹ | –
MccB ΔNTE (domain or fragment) | – | – | – | stoichiometry N [2]: 2
MRTGNAN [SeMet-MccA] | – | – | – | Km for MccA in the MccB-catalysed reaction (HPLC of product formation) [3]: 370 µM; binding result [4]: binds
MccB-His6 (enzyme, E. coli, UniProt Q47506 1-350, looked up) MDYILGRYVKIARYGSGGLVGGGGKEQYVENLVLWENIIKTAYCFITPSSYTAALETANIPEKDFSNCFRFLKENFFIIPGEYNNSTENNRYSRNFLHYQSYGANPVLVQDKLKNAKVVILGCGGIGNHVSVILATSGIGEIILIDNDQIENTNLTRQVLFSEDDVGKNKTEVIKRELLKRNSEISVSEIALNINDYTDLHKVPEADIWVVSADHPFNLINWVNKYCVRANQPYINAGYVNDIAVFGPLYVPGKTGCYECQKVVADLYGSEKENIDHKIKLINSRFKPATFAPVNNVAAALCAADVIKFIGKYSEPLSLNKRIGIWSDEIKIHSQNMGRSPVCSVCGNRM | – | – | – | binding result [5]: binds
B1 | – | – | – | binding result [6]: binds
